Laboratory results published in the nanobody polyreactivity screen of Harvey et al. (2022).

assay: yeast display, Sf9 membrane polyspecificity reagent, FACS + sequencing; frameworks hold sequencing errors
How it was run: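 Synthetic nanobody libraries on Saccharomyces cerevisiae BJ5465 were galactose-induced for 36–48 hours, stained 1 hour at 4 °C with 10% biotinylated, detergent-solubilized Sf9 membrane reagent and enriched on streptavidin microbeads. FACS then separated cells into low and high (top ~1%) gates by anti-HA (expression) and streptavidin (reagent binding) fluorescence. Genes were colony-PCR amplified, MiSeq 2 × 250 sequenced and CDR-length filtered. A clone's polyreactivity label is that of its gate of origin.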

Sequence | polyreactivity (PSR sort gate)
QVQLVESGGGLVQAGGSLRLSCAASGRISSNVMGWYRQAPGKERELVAAISVSGARTYYADSVKGRFTISRDNAKNTVYLQMNSLKPEDTAVYDCAAVYGGVYYGGDYWGQGTQVTVSS | high polyreactivity
QVQLVESGGGLVQAGGSLRLSCAASGRISSYYVMGWYRQAPGKERELVAAITGGDSTNYADSVKGRFTISRDNAKNTVYLQMNSLKPEDTAVYYCNAYYWYLDDYWGQGSQVTVSS | high polyreactivity
QVQLVESGGGLVQAGGSLRLSCAASGRISTYYTMGWYRQAPGKERELVAAISWSGTSTYYADSVKGRFTISRDNAKNTVYLQMNSLKPEDTAVYYCNARWRYPLDSVTDDYWGQGTQVTVSS | high polyreactivity
QVQLVESGGGLVQAGGSLRLSCAASGRISVRIYAMGWYRQAPGKERELVAIISRSGGSTYYADSVKGRFTISRDNAKTTVYLQMNSLKPQDTAVYYCNARWSFSYTVWVASYWCLDDYWGQGTQVTVSS | high polyreactivity
QVQLVESGGGLVQAGGSLRLSCAASGRISVVNAMGWYRQAPGQERELVAAIRRASTNYADSVKGRFTISRDNAKKTVYLQMNSLKPEDTAVYYCAARVYGINIFEYWGQATQVTVSS | high polyreactivity
QVQLVESGGGLVQAGGSLRLSCAASGRISVYNAMGWYRQAPGKERELVAAISRGSTNYADSVKGRFTISRDNAKNTVYLQMNSLKPEDTAVYYCAARSVSFPWRRYAGYDYWGQGTQVTVSS | high polyreactivity
QVQLVESGGGLVQAGGSLRLSCAASGRISYTYSAMGWYRQAPGKERELVAAITRRGGSTSYADSVKGRFTISRDNAKNTVYLQMNSLKPDDTAVYYCAAVGSFHIVDYWGQGTQVTVSS | high polyreactivity
QVQLVESGGGLVQAGGSLRLSCAASGRIVADYAMGWYRQAPGKERELVAAIRGSGGDTYYADSVKGRFTISRDNAKNTDYLQMNSLKPEDTAVYYCNAVDTYDLDNDYWGQGTQVTVSS | low polyreactivity
QVQLVESGGGLVQAGGSLRLSCAASGRIVANAMGWYRQAPGKESELVAAITATYYADSVKGRFTISRDNAKNTVYLQMNSLKPEDTAVYYFNAYLSPKQPLSPPDPSFEGGYWGQGTQVTVSS | low polyreactivity
QVQLVESGGGLVQAGGSLRLSCAASGRIVARYAMGWYRQAPGKERELVAAISPVGSTYYADSVKGRFTISRDNAKNTVYLQMTSLNPEDTGVYYCNAYNTRRSAPYVWRTYDYWGQGTQVTVSS | high polyreactivity
QVQLVESGGGLVQAGGSLRLSCAASGRIVGRNAMGWYRQAPGKERELVAAISSGGGRTYYADSVKGRFTISRDNAKNTVYLQMNSLKPEDTAVYYCNAGWRGRFYYWGQGTQVTVSS | high polyreactivity
QVQLVESGGGLVQAGGSLRLSCAASGRIVGRYAMGWYRQAPGKERELVAAISWSGGSTYYADSVKGRFTISRDNAKNTVYLQKNSLKPEDTAGYYCAADYDSYFRLYNYWGQGTQVTVSS | high polyreactivity
QVQLVESGGGLVQAGGSLRLSCAASGRIVPGNVMGWYRQAPGKERELVAAISSSGGSTYYADSVKGRFTISRDNAKNTVYLQMNSLKPEDTAVYYCNVRSGGKRRYSGRVDYWGQGTQVTVSS | low polyreactivity
QVQLVESGGGLVQAGGSLRLSCAASGRIVRNAIGWYRQAPGKERELVAAISRSGGSTYYADSVKGRFTISRDNAKNTVYLQMNSLKPEDTAVYYCDKRSTSQSLQGEYWGQGTQVTVSS | high polyreactivity
QVQLVESGGGLVQAGGSLRLSCAASGRIVSVNAMGWYRQAPGKERVLVAAITSGGRTNYADSVKGRFTISRDNAKNTVYLQMNSLNPEDTAVYFCAAPYLKGGEDEYWGQGTQVTVSS | high polyreactivity
QVQLVESGGGLVQAGGSLRLSCAASGRIWVYAMGWYRQAPGKERELVATITYNSGRTYYADSVKGRFTISRDNAKNTVYLQMNSLKPEDTAVYYCNADFWYSYRRGYGYWGQGTQVTVSS | high polyreactivity
QVQLVESGGGLVQAGGSLRLSCAASGRIYDGYAMGWYRQAPGKERELVATISSGGSTYYADSVKGRFTISRDNAKNNVYLQMNSLKPEDTAVYYCAADSWVQFDYWGQGTQVTVSS | low polyreactivity
QVQLVESGGGLVQAGGSLRLSCAASGRIYDVYAMGWYRQAPRKERELVATITGSGGGTYYADSVKGRFTISRDNAKNTVYLQMNSLKPEDTAVYYCAADYYPTYAYYVSNVGYDYWGQGTQVNVSS | low polyreactivity
QVQLVESGGGLVQAGGSLRLSCAASGRIYEYMGWYRQAPGKERELVAAISWRGGRTYYADSVKGRFTISRDNAKNTVYLQMNSLKPEDTAVYYCAAKTTYRYGYWGQGTQVTVSS | high polyreactivity
QVQLVESGGGLVQAGGSLRLSCAASGRIYFYNALGWYRQAPGKERELVATITRSGGRTYYADSVKGRFTISRDNAKNTVYLQMNSLKPEDTAVYYCAAYPTNNLYPNLEYWGQGTQVTVSS | high polyreactivity
QVQLVESGGGLVQAGGSLRLSCAASGRIYIIYAMGWYRQAPRKEREMVAAITRSGGRTFYADSVKGRFTISRDNAKNTVYLQMNSLKPEDTAVYYCAAAFGRVTKYGYRNQYGYWGQGTQVTVSS | high polyreactivity

Sequence | polyreactivity (PSR sort gate)
QVQLVESGGGLVQAGGSLRLSCAASGRIYLGNVMGWYRQAPGKERELVAAISWSAGSTYYSDSVKGRFTISRDNAKITVYLQMNSLKPEDTAVYYCAAVYLWWSYEFDYWGQGTQVTVSS | low polyreactivity
QVQLVESGGGLVQAGGSLRLSCAASGRIYLYAMGWYRQTPGKERELVAAISYSGGSTYYADSVKGRFTISRDYAKNTVYLQMNCLKPEDTAVYYWASEAGSYWGKGTQVTVSS | high polyreactivity
QVQLVESGGGLVQAGGSLRLSCAASGRIYSNYAIGWYRQAPGKERELVAAITSGGRTNYADSVKGRFTISRDNAKNTVYLQMNSLKRDDTAVYYCDAETTPYQPDGFDEYYYWGQGTQVTVSS | high polyreactivity
QVQLVESGGGLVQAGGSLRLSCAASGRIYTRNTMGWYRQAPGKERELVAAITSRGGSTYYADSVKGRFTISRDNAKNTVYLQMNSLKPEDTAVYYCAADKPRSYYYWGLGTQVTVSS | high polyreactivity
QVQLVESGGGLVQAGGSLRLSCAASGRIYVYYVLGWYRQAPGKERELVAAITYSGGSTYYADSVKGRFTISRDNAKNTVYLQMNSLKPEDTAVYYCNKVDAFGIVRLYYWGQGTQVTVSS | low polyreactivity
QVQLVESGGGLVQAGGSLRLSCAASGRIYYRYGMGWYRQAPGKERELVAAISRTGGSTYYADSVKGRFTISRDNAKNTVYLQMNSLIPEDTAVYYCNATSNYRYDYWGQGTQVTVSS | low polyreactivity
QVQLVESGGGLVQAGGSLRLSCAASGRMFGAYGMGWYRQAPGKERELVAAISNGGRTSYADSVKGRFTISRDNAKNTVYLQMNSLKPEDTAVYYCAAVQLAYTYYWYNDWGQGTQVTVSS | high polyreactivity
QVQLVESGGGLVQAGGSLRLSCAASGRNFAWYAMGWYRQAPGKERELVAAISWSSDTTYYADSVKGRFTISRDNAKNTVYLQMNSLKPEDTAVYYCAAVFQGYTRKYYYWGQGTQVTVSS | high polyreactivity
QVQLVESGGGLVQAGGSLRLSCAASGRNFDKYTMGWYRQAPGKERELVAAISKSGSGTFYADSVKGRFTISRDNAKNTVYLQMNRLKPEDTAVYYCARVYTVGTGRSWRLDYWGQGTQVTVSS | high polyreactivity
QVQLVESGGGLVQAGGSLRLSCAASGRNFGAYTMGWYRQAPGKESELVAAISSSGGRTYYADSVKGRYTISRDNAKNTVYLQMNSLKPEDTAVYYCAASYSGRKDRYPHYDYWGQGTQVTVSS | low polyreactivity
QVQLVESGGGLVQAGGSLRLSCAASGRNFGDYAMGWYRQAPGKERELVAAISSSGGRTYYADSVKGRFTISRDNAKNTVYLQMNSLQPEDTAVYYCAAQSKYYQYYSWGQGTQVTVSS | high polyreactivity
QVQLVESGGGLVQAGGSLRLSCAASGRNFGLYAMGWYRQAPGTERELVAAISWGGGRTYYADSVKGRFTISRDNAKNTVYLQMNSLKPEDTAVYYCNAVYSPRYYVGGYDYWGQGTQVTVSS | high polyreactivity
QVQLVESGGGLVQAGGSLRLSCAASGRNFGRYAMGWYRQAPGKEMELVAAISGSGGTTYYADSVKGRFTISRDNAKNTVYLQMNSLKPEDTAVYYCAARYWVGKVWKYDYWGQGTQVTVSS | high polyreactivity
QVQLVESGGGLVQAGGSLRLSCAASGRNFGSYAMGWYRQAPGKERELVAGIRSVGSTNYADSVKGRFTISRDNAKNTVYLQMNSLKPEDTAVYYCAARLWHLSYAGQGGDYWGQGTQVTVSS | low polyreactivity
QVQLVESGGGLVQAGGSLRLSCAASGRNFGTNAMGWYRQAPGKERELVASIDLSADSTYYADSVKGRFTISRDNAKNTVYLQMNSLKPEDTAVYYCNKDGYPWPPNLDYWGQGTQVTVSS | low polyreactivity
QVQLVESGGGLVQAGGSLRLSCAASGRNFKYNAMGWYRQAPGKERELVAVITSGGSTYYADSVKGRFTISRDNAKNTVYLQMNSLKPEDTAVYYCAKKYYKVHKFDYWGQGTQVTVSS | low polyreactivity
QVQLVESGGGLVQAGGSLRLSCAASGRNFPLNGMGWYRQAPGKERELVAAISYRGGSTYYADSVKGRFTISRDNPKNTVYLQMNSLKPEDTAVYYCAADYVSRRYYYWGQGTQVTVSS | high polyreactivity
QVQLVESGGGLVQAGGSLRLSCAASGRNFRDYDMGWYRQAPGKERELGAAITYDGYSTYYADSVKGRFTISRDNAKNTVYLQMNSLKPEDTAVYYCNADDDVTYFTYYSGGLYYWGQGTQVTVSS | low polyreactivity
QVQLVESGGGLVQAGGSLRLSCAASGRNFRRYAMGWYRQAPGKERELVATISGSGTSTYYADSVKGRFTISRDNAKNTVYLQMNSLKPEDTAVYYCAAGNPYYRTSQYYHWGQGTQVTVSS | high polyreactivity
QVQLVESGGGLVQAGGSLRLSCAASGRNFRSYVMGWYRQAPGKERELVASIRNRGGTTYYADSVKGRFTISRDNAKNTVYLQMNSLKPEDTAVYYCNAAPARTVYAQSSYVLYDYWGQGTQVTVSS | low polyreactivity
